Experimental data published in PMC2881335.
Several values for one entry are separate records, joined by “and”; a condition that tells them apart may be missing. Identical values can stand only once.

What was measured:
[1] = molecular target: complement C3b, site-specifically biotinylated at the thioester moiety (UniProt P01024); assay: SPR
complement C3b = complement C3b (UniProt P01024); assay: ITC
[2] = molecular target: complement C3b, site-specifically biotinylated at the thioester moiety (UniProt P01024); assay: SPR; remark: listed apart in the source

## Bb fragment of factor B (from UniProt P00751 260-764) (domain or fragment)
[1]
  decay half-life of the convertase: 5 to 6 min

B1: staphylococcal complement inhibitor SCIN-A (natural protein)
chain: STSLPTSNEYQNEKLANELKSLLDELNVNELATGSLNTYYKRTIKISGQKAMYALKSKDFKKMSEAKYQLQKIYNEIDEALKSKY
Complement C3b
  Kd: 264 nM
  stoichiometry N: 0.75
[2]
  Kd: 169 nM and 177 nM
